Measured values from article PMC6602975.

Columns and labels:
[1] = target: Unmodified nucleosome core particle (X. laevis histone octamer on 147 bp Widom-601 DNA) (X. laevis); assay: native gel or EMSA; increasing amounts of Orc1 or Sir3 proteins with 50 or 25 nM nucleosomes; 10 mM Tris pH 7.5, 50 mM NaCl, 2.5% glycerol, 1 mM DTT; room temperature, 30 min; native PAGE 6% (Sir3) or 8% (Orc1), 0.2X TBE; decrease of free nucleosome; apparent KD from a Hill fit
[2] = target: H4K16ac nucleosome (X. laevis | not stated); assay: as above

Q: Which fold decrease in affinity compared with the WT domain [1] does the source give for “Orc1 BAH R202E (from UniProt P54784 1-214) (domain or fragment)” here?
A: 4.9 fold

Q: For “Sir3 BAH D205Q (from UniProt P06701 1-214) (domain or fragment)”, which fold difference in affinity compared with unmodified nucleosome [2] is on record?
A: 4 fold

Q: “Orc1 BAH E95K (from UniProt P54784 1-214) (domain or fragment)” was tested. Which fold loss of affinity [1] did it give?
A: 4 fold

Q: Which fold loss of affinity compared with the WT domain [1] does the source give for “Orc1 BAH A2P (from UniProt P54784 1-214) (domain or fragment)” here?
A: 2 fold
